Data set [1] addresses T1, chymase (recombinant, manufactured by SIGMA) (Homo sapiens, UniProt P23946).
T1 construct: purchased SIGMA; host or cells: yeast
T1 sequence (P23946 22-247): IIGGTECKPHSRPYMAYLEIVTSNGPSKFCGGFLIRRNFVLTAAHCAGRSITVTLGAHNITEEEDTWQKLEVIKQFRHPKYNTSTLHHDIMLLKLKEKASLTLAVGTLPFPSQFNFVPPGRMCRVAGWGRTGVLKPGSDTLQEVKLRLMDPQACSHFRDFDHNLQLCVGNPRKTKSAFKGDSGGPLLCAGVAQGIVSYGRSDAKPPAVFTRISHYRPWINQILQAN
Briefly: Surface plasmon resonance (Biacore T100), chymase immobilized on CM5 chip, nucleic acid injected as analyte. Set-up: key to binding activity using Biacore: ++: significant binding to chymase than SEQ ID NO: 58 which is a negative control; +: similar binding level as SEQ ID NO: 58 which is a negative control. The class given is binding. The following applies: Table 5; same manner as Example 4; compared with SEQ ID NO: 58. The protocol:
In another method, chymase is first immobilized onto a sensor chip, the amount immobilized being about 4000 RU. 20 μL of an aptamer solution for analyte, prepared at 0.01 μg/μL, is injected, and the binding of the aptamer to chymase is detected. An RNA containing a random nucleotide sequence of 30 or 40 nucleotides is used as a negative control.
Whether these nucleic acids bind to chymase was determined by the surface plasmon resonance method. Measurements were taken using Biacore T100 (manufactured by GE Healthcare) as described below. About 4000 RU of chymase (recombinant, manufactured by SIGMA) was immobilized on the sensor chip surface of a CM5 chip, using an amine coupling kit. 20 μL of each nucleic acid, prepared at 0.3 μM, as an analyte was injected at a flow rate of 20 μL/min. Solution C was used as a running buffer. The method of evaluation used was the same as Example 1.
All nucleic acids of SEQ ID NO: 58-68 were prepared by chemical synthesis. Whether these nucleic acids are bound to chymase was assessed by surface plasmon resonance method in the same manner as in Example 4. The inhibitory activity on chymase was measured in the same manner as in Example 3.
All nucleic acids of SEQ ID NOs: 73-79, 56(8), 80, 56(10), 81, 56(13)-56(14), 83-87 were prepared by chemical synthesis. Whether these nucleic acids are bound to chymase was assessed by surface plasmon resonance method in the same manner as in Example 4.
All nucleic acids of SEQ ID NO: 88-120, 121, 69, 122, 123, 70-72, 124-131 were prepared by chemical synthesis. Whether these nucleic acids are bound to chymase was assessed by surface plasmon resonance method in the same manner as in Example 4.

The target of data set [2] is T1, chymase (recombinant, manufactured by SIGMA). Put plainly: Chymase inhibitory activity using synthetic substrate Suc-Ala-Ala-Pro-Phe-MCA. The class given is biochemical. To be noted: Table 5; same manner as Example 3; mean value of two measurements. In short, it runs like this: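 Human recombinant chymase (16.7 nM or 1.67 nM final) preincubated 5 min at 37° C., then added to nucleic acid (0.0027–2 μM serial dilutions) and 100 μM substrate in solution C. AMC fluorescence (ex 380/em 460 nm) followed 5 or 30 min at 37° C.; slope gives initial velocity, inhibition versus no-inhibitor control yields IC50.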

The target of data set [3] is T2, chymase (recombinant) (UniProt P23946 P23946:22-247).
T2 sequence: T1 sequence (P23946 22-247)
Put plainly: inhibition; SPR ++. To be noted: tags: SIGMA, expressed in yeast. The protocol:
(§1) Here, Suc is a protecting succinyl group, and MCA is a 4-methylcoumaryl-7-amide group; upon cleavage of the C-terminal side of phenylalanine, AMC (7-amino-4-methyl-coumarine) is released. By detecting the fluorescence of this AMC, the enzyme activity of chymase can be determined. The assay was performed using a 96-well plate (F16 Black Maxisorp Fluoronunc, manufactured by Nunc), with a reaction mixture volume of 100 μL, in solution C as a buffer solution. First, each nucleic acid was serially diluted to 0.0027-2 μM concentrations in solution C to obtain 50 μL solutions. After 10 μL of the 1 mM substrate prepared in solution C was added thereto, the plate was set to the microplate reader SpectraMax190 (manufactured by Molecular Devices Corporation), and incubated at 37° C. for 5 minutes. Separately, 0.05 μg (or 0.005 μg) of chymase (recombinant, manufactured by SIGMA) was diluted in solution C to obtain a 40 μL chymase solution, and incubated at 37° C. for 5 minutes. The chymase solution was added to the mixture of the nucleic acid and substrate to initiate an enzyme reaction. The final chymase concentration in the reaction mixture was 16.7 nM (or 1.67 nM), the final substrate concentration being 100 μM. The plate containing the reaction mixture was set to the microplate reader SpectraMax190 (manufactured by Molecular Devices Corporation), and examined for time-dependent changes in the fluorescence intensity at 37° C. for 5 minutes (or 30 minutes) (excitation wavelength 380 nm, detection wavelength 460 nm). A linear approximation of the increase in the fluorescence of the AMC released from the substrate by chymase activity was generated, and its slope was taken as the initial velocity […]. For control, samples were treated and analyzed in the same manner in two cases: use of a 30N or 40N (a nucleotide of 30 or 40 consecutive bases represented by N; N is A, G, C or T) nucleic acid pool (negative control), and use of chymostatin, a known chymotrypsin-like serine protease inhibitor (positive control). Taking the initial reaction velocity without the nucleic acid and inhibitor (V_0) as a 100% enzyme activity, the inhibitory rate of each test substance was calculated using the following equation: […]

Data set [4] addresses T2, chymase (recombinant). Put plainly: inhibition; SPR ++. The following applies: tags: SIGMA, expressed in yeast. The protocol:
as §1
The inhibitory activity on chymase was measured in the same manner as in Example 3.
This is another data set of the same source.

Substitutions are numbered along the chain they refer to. Oligonucleotides are written 5' to 3', each unit as a sugar letter and its base; * is a phosphorothioate linkage, no mark a phosphodiester; rarer units and linkages stand in square brackets, end groups in braces. Plain capitals give the bases only. r = 2'-OH (RNA); f = 2'-fluoro

Broadly, the IC50 is the point on the concentration scale where inhibition reaches its midpoint. For the molecule “60 (GGGUUAGAUAGAGCUAAAAACCC; 2'-fluoro at CU, RNA at AG, backbone not given here) [compound 60]”, the “binding activity using Biacore” value in data set [1] is “++”. For the same molecule, the IC50 in data set [2] worked out at 26 ± 6 nM. On the same counts, the results for “61 (GGGUUAGAUAGAUUUAAAAACCC; 2'-fluoro at CU, RNA at AG, backbone not given here) [compound 61]” are “++” and 23 ± 6 nM. Regarding “62 (GGGUUGGAUAGAGUUAAGAACCC; 2'-fluoro at CU, RNA at AG, backbone not given here) [compound 62]”, in data set [1], the “binding activity using Biacore” value is “++”. Further, the IC50 in data set [2] is 29 ± 4 nM. On the same counts, the results for “63 (rGfCfUrAfCrArGrAfUrArGrArGfUfUrArArArGfUrArGfC) [compound 63]” are “++” and 23 ± 3 nM. For “64 (rGfUfCrAfCrArGrAfUrArGrArGfUfUrArArArGfUrGrAfC) [compound 64]”, in that order: “++” and 20 ± 5 nM. Turning to “66 (GGGUUAGAUCGAGUUAAAAACCC; listed as RNA, chemistry not fully specified) [compound 66]”, the “binding activity using Biacore” value in data set [1] was “+”. In data set [2], the IC50 was greater than 1000 nM. For “67 (GGGUUAGAUACAGUUAAAAACCC; listed as RNA, chemistry not fully specified) [compound 67]”, in that order: “+” and greater than 1000 nM. For “68 (GGGUUAGAUAGUGUUAAAAACCC; listed as RNA, chemistry not fully specified) [compound 68]”, in that order: “+” and greater than 1000 nM.

B1: SEQ 12 (ssRNA)
RNA: GGGACGGUAGGAAUUCGCCGUCAACGUUACAUAAUGUAUAUACCAGGGUAACUAAACAUAGAAGAGCGGCCGC
modifications: 2'-F pyrimidines
Turning to B1, in the data set with chymase (recombinant) [3], the half-maximal inhibitory concentration (IC50) was 128 nM.

B2: SEQ 6 (ssRNA)
RNA: GGGACGGUAGGAAUUCUACGGUCUGUGUGAAAUUGAAACACACAAAGAACAAUAGACAUAGAAGAGCGGCCGC
modifications: 2'-F pyrimidines
As to B2, in the data set with chymase (recombinant) [3], the IC50 came out at 456 nM.

B3: SEQ 8 (ssRNA)
RNA: B2 RNA with G55A
modifications: 2'-F pyrimidines
Take B3: the IC50 with chymase (recombinant) [3] came to 453 nM.

B4: SEQ 15 (ssRNA)
RNA: GGGACGGUAGGAAUUCCCAGAAAAUAAAUUCCGAAGAAAACAACAAUUUUUGCAAACAUAGAAGAGCGGCCGC
modifications: 2'-F pyrimidines
With B4, the concentration for half-maximal inhibition (IC50) with chymase (recombinant) [3] is 285 nM.

B5: SEQ 14 (ssRNA)
RNA: GGGACGGUAGGAAUUCUCGUUCCUGACAGCAUUUGAGAUAGAUUUAAACAAACGCACAUAGAAGAGCGGCCGC
modifications: 2'-F pyrimidines
As for B5, in the data set with chymase (recombinant) [3], the IC50 came out at 61 nM.

B6: SEQ 24 (ssRNA)
RNA: GGGACGGUAGGAAUUCCCUUCAUAGUAGAAUGUUGGUUUCUACAAAAGCGACAAGCAUAGAAGAGCGGCCGC
modifications: 2'-F pyrimidines
On to B6, for which, in the data set with chymase (recombinant) [3], the IC50 is 92 nM.

B7: SEQ 5 (ssRNA)
RNA: GGGACGGUAGGAAUUCCCACUUGUCUUUGAGGCAAGAAAUUGUAUUCCGAAGAAGCAUAGAAGAGCGGCCGC
modifications: 2'-F pyrimidines
On to B7, for which the IC50 with chymase (recombinant) [3] turned out to be 80 nM.

B8: SEQ 25 (ssRNA)
RNA: GGGACGGUAGGAAUUCAGCUGACUCCAAUGCACACGUAGAUAGAGUUAAAACGUUGCAUAGAAGAGCGGCCGC
modifications: 2'-F pyrimidines
In the case of B8, the half-inhibitory concentration (IC50) with chymase (recombinant) [3] is 79 nM.

B9: SEQ 17 (ssRNA)
RNA: GGGACGGUAGGAAUUCCGUUCGCAGAAACGAACUUUUAAAAAAUGUACGUGGGAGCACAUAGAAGAGCGGCCGC
modifications: 2'-F pyrimidines
In the case of B9, in the data set with chymase (recombinant) [3], the IC50 came to 92 nM.

As to GGGUUAGAUAGAGUUAAAAACCC (ssRNA, 2'-F pyrimidines; PS between A6 and G7) [56(19)], the IC50 in the data set with chymase (recombinant) [4] was 8 nM.

B10: SEQ 9 (ssRNA)
RNA: GGGACGGUAGGAAUUCCCGAAAAGCAACAAGCUUGCUAAAAUGAUUCCGAAAAAACACAUAGAAGAGCGGCCGC
modifications: 2'-F pyrimidines
Consider B10, for which the IC50 with chymase (recombinant) [3] is 273 nM.

B11: SEQ 23 (ssRNA)
RNA: GGGACGGUAGGAAUUCAUAUGUACUCCGUCCUGACAAAAUGUCAAUGACAAACGUUCAUAGAAGAGCGGCCGC
modifications: 2'-F pyrimidines
B11: the half-inhibitory concentration (IC50) in the data set with chymase (recombinant) [3] was determined as 238 nM.

B12: SEQ 11 (ssRNA)
RNA: GGGACGGUAGGAAUUCCCGACACGAAAUGUGUGAUUAAUUCCGAACAACAAAGUAACAUAGAAGAGCGGCCGC
modifications: 2'-F pyrimidines
B12: the IC50 with chymase (recombinant) [3] amounted to 145 nM.

B13: SEQ 30 (ssRNA)
RNA: GGGACGGUAGGAAUUCGUCCCUCUUGUCUAUUUUGCAGAUAGACUUAAAGCAAACAUAGAAGAGCGGCCGC
modifications: 2'-F pyrimidines
Turning to B13, the IC50 in the data set with chymase (recombinant) [3] turned out to be 147 nM. As for GGGUUAGAUAGAGUUAAAAACCC (ssRNA, 2'-F pyrimidines; PS between U5 and A6) [56(18)], the IC50 with chymase (recombinant) [4] came out at 12 nM. The same measure, in the same setting: then GGGUUAGAUAGAGUUAAAAACCC (ssRNA, 2'-F pyrimidines; 5' and 3' idT) [56(1)], with 26 nM.

B14: SEQ 18 (ssRNA)
RNA: GGGACGGUAGGAAUUCGAACGACAAAUUAUAGAACUUCGUUUGACAUUCCACACCACAUAGAAGAGCGGCCGC
modifications: 2'-F pyrimidines
For the molecule B14, in the data set with chymase (recombinant) [3], the IC50 amounted to 58 nM. As for GGGUUAGAUAGAGUUAAAAACCC (ssRNA, 2'-F pyrimidines; 2'-OMe G1-G3) [56(2)], the half-maximal inhibitory concentration (IC50) in the data set with chymase (recombinant) [4] was 24 nM.

B15: SEQ 19 (ssRNA)
RNA: GGGACGGUAGGAAUUCCCACUGCAAUUCAGCAGAAAAAAUUCCGAAAAACACACACCAUAGAAGAGCGGCCGC
modifications: 2'-F pyrimidines
As to B15, the IC50 with chymase (recombinant) [3] was 163 nM.

B16: SEQ 26 (ssRNA)
RNA: GGGACGGUAGGAAUUCGUCGAUUCUACAGAUAGAGAUAAAGUAGAAUUUAACAAAACAUAGAAGAGCGGCCGC
modifications: 2'-F pyrimidines
Take B16: the concentration for half-maximal inhibition (IC50) with chymase (recombinant) [3] was 106 nM. As for GGGUUAGAUAGAGUUAAAAACCC (ssRNA, 2'-F pyrimidines; 2'-OMe A19,A20) [56(3)], in the data set with chymase (recombinant) [4], the half-maximal inhibitory concentration (IC50) amounted to 25 nM.

Source of the values: patent US9012420B2, “Aptamer for chymase, and use thereof” (Ribomic Inc., priority 2009, dated 2015).
